The target in this assay is T1, human FcγRIIb receptor protein (R&D Systems) (human, UniProt P31994 46-217).
T1 construct: Analyte injected over antibodies captured on a protein A/G chip (Biacore); also called CD32b
T1 sequence (looked up): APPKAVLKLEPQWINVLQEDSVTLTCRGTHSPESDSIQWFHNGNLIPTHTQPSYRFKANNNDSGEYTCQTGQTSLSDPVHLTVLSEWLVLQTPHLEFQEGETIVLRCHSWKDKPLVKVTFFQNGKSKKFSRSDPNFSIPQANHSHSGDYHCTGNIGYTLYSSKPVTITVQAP
Put plainly: SPR (Biacore). As to the method:
Variants were screened for receptor affinity using Biacore™ technology, also referred to as Biacore herein, a surface plasmon resonance (SPR) based technology for studying biomolecular interactions in real time. SPR measurements were performed using a Biacore 3000 instrument (Biacore, Piscataway, N.J.). A protein A/G (Pierce Biotechnology) CM5 biosensor chip (Biacore) was generated using a standard primary amine coupling protocol. All measurements were performed using HBS-EP buffer (10 mM HEPES pH 7.4, 0.15 M NaCl, 3 mM EDTA, 0.005% vol/vol surfactant P20, Biacore). Antibodies at 20 nM or 50 nM in HBS-EP buffer were immobilized on the protein A/G surface and FcγRs were injected. After each cycle, the surface was regenerated by injecting glycine buffer (10 mM, pH 1.5). Data were processed by zeroing time and response before the injection of FcγR and by subtracting appropriate nonspecific signals (response of reference channel and injection of running buffer). Kinetic analyses were performed by global fitting of binding data with a 1:1 Langmuir binding model using BIAevaluation software (Biacore).
Background: In SPR one partner is held on a chip, and binding of the other changes the refractive index at the surface.

Where a chain is given by its changes, count along the chain named. Numbers in names are those of the source.

B1: A327D/L328Y/I332E (antibody, human IgG1, kappa)
heavy: EVQLVESGGGLVKPGGSLKLSCAASGYTFTSYVMHWVRQAPGKGLEWIGYINPYNDGTKYNEKFQGRVTISSDKSISTAYMELSSLRSEDTAMYYCARGTYYYGTRVFDYWGQGTLVTVSSASTKGPSVFPLAPSSKSTSGGTAALGCLVKDYFPEPVTVSWNSGALTSGVHTFPAVLQSSGLYSLSSVVTVPSSSLGTQTYICNVNHKPSNTKVDKKVEPKSCDKTHTCPPCPAPELLGGPSVFLFPPKPKDTLMISRTPEVTCVVVDVSHEDPEVKFNWYVDGVEVHNAKTKPREEQYNSTYRVVSVLTVLHQDWLNGKEYKCKVSNKDYPAPEEKTISKAKGQPREPQVYTLPPSREEMTKNQVSLTCLVKGFYPSDIAVEWESNGQPENNYKTTPPVLDSDGSFFLYSKLTVDKSRWQQGNVFSCSVMHEALHNHYTQKSLSLSPGK
light: DIVMTQSPATLSLSPGERATLSCRSSKSLQNVNGNTYLYWFQQKPGQSPQLLIYRMSNLNSGVPDRFSGSGSGTEFTLTISSLEPEDFAVYYCMQHLEYPITFGAGTKLEIKRTVAAPSVFIFPPSDEQLKSGTASVVCLLNNFYPREAKVQWKVDNALQSGNSQESVTEQDSKDSTYSLSSTLTLSKADYEKHKVYACEVTHQGLSSPVTKSFNRGEC
notes: HuAM4G7 IgG1 Fc variant
For B1, the “Fold FcγRIIb” value was determined as 2.31 fold.

B2: A330H (antibody, human IgG1, kappa)
heavy: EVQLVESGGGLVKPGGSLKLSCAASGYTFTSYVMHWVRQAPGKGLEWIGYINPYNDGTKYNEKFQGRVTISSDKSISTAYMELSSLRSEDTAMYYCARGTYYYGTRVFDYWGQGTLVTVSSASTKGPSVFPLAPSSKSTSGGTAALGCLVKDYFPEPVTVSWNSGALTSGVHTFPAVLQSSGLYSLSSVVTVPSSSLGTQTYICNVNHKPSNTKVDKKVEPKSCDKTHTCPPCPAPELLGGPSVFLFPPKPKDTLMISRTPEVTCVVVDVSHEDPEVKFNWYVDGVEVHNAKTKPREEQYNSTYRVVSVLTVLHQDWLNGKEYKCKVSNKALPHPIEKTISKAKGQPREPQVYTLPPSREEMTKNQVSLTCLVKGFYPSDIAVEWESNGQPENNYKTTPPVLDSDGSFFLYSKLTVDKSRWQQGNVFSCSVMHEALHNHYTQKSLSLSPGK
light: B1 light
notes: HuAM4G7 IgG1 Fc variant
Consider B2, for which the binding result is reported as “no binding”.

B3: A327L (antibody, human IgG1, kappa)
heavy: not shown
light: B1 light
notes: HuAM4G7 IgG1 Fc variant
With B3, the binding result is listed as “no binding”.

B4: A330S (antibody, human IgG1, kappa)
heavy: not shown
light: B1 light
notes: HuAM4G7 IgG1 Fc variant
Regarding B4, the “Fold FcγRIIb” value came out at 0.0635 fold.

B5: H268D/L328Y/I332E (antibody, human IgG1, kappa)
heavy: B1 heavy with H272D, D331A
light: B1 light
notes: HuAM4G7 IgG1 Fc variant
As to B5, the “Fold FcγRIIb” value was 4.89 fold.

B6: H268D/L328Y (antibody, human IgG1, kappa)
heavy: not shown
light: B1 light
notes: HuAM4G7 IgG1 Fc variant
Regarding B6, the “Fold FcγRIIb” value stood at 1.91 fold.

B7: G237L (antibody, human IgG1, kappa)
heavy: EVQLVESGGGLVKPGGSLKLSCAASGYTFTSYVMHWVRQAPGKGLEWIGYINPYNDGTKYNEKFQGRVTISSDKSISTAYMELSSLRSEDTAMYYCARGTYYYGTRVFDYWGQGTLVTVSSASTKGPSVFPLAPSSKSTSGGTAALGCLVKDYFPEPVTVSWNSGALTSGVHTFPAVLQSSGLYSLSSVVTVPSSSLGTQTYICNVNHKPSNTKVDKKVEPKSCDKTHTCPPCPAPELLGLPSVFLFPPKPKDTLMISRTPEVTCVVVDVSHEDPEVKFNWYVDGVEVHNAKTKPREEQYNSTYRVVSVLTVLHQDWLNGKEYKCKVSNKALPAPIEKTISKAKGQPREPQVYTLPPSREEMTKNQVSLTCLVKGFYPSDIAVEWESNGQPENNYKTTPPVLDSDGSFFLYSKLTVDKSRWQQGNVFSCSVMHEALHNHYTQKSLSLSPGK
light: B1 light
notes: HuAM4G7 IgG1 Fc variant
As for B7, the binding result is “no binding”.

B8: H268D/A327D/L328Y (antibody, human IgG1, kappa)
heavy: B1 heavy with H272D, E336I
light: B1 light
notes: HuAM4G7 IgG1 Fc variant
For B8, the “Fold FcγRIIb” value turned out to be 3.49 fold.

B9: G236S/G237A (antibody, human IgG1, kappa)
heavy: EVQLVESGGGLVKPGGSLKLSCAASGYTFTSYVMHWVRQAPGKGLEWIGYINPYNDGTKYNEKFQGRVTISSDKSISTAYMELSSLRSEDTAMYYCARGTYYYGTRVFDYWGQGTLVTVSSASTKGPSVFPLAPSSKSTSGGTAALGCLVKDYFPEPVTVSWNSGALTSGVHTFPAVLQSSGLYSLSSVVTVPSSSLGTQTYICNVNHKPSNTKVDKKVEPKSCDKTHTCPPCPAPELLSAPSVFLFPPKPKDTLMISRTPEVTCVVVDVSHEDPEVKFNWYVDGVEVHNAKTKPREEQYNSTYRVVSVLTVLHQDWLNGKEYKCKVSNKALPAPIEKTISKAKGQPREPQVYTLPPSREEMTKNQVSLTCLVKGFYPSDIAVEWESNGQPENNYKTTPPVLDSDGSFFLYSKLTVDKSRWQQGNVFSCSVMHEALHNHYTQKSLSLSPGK
light: B1 light
notes: HuAM4G7 IgG1 Fc variant
Turning to B9, the “Fold FcγRIIb” value stood at 0.0797 fold.

B10: G236L (antibody, human IgG1, kappa)
heavy: not shown
light: B1 light
notes: HuAM4G7 IgG1 Fc variant
Regarding B10, the binding result is on record as “no binding”.

B11: G237H (antibody, human IgG1, kappa)
heavy: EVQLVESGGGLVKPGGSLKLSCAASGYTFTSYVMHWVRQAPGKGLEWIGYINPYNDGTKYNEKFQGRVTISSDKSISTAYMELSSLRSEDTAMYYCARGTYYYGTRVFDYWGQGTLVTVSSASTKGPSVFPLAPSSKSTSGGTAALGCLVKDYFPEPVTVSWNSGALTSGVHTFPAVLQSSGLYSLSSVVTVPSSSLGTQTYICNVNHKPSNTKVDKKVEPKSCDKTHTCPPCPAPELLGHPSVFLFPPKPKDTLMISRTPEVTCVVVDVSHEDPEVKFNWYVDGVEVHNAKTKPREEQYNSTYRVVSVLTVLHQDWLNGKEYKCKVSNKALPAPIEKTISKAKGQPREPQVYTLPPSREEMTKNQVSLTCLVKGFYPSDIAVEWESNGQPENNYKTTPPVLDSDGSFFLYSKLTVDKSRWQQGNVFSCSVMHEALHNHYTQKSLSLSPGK
light: B1 light
notes: HuAM4G7 IgG1 Fc variant
On to B11, for which the binding result is “no binding”.

B12: A330K (antibody, human IgG1, kappa)
heavy: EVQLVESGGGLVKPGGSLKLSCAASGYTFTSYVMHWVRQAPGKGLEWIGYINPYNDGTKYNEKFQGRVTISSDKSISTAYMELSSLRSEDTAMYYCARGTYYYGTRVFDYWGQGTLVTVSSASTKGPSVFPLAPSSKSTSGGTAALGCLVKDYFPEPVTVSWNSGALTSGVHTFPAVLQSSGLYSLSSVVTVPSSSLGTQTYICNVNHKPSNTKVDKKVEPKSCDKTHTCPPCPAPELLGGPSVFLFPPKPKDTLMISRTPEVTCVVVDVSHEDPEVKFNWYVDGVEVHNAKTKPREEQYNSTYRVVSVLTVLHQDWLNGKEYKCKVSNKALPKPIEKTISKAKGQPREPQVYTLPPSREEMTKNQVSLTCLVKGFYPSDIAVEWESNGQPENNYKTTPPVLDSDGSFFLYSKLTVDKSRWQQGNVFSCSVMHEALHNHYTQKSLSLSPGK
light: B1 light
notes: HuAM4G7 IgG1 Fc variant
On to B12, for which the “Fold FcγRIIb” value turned out to be 1.55 fold.

B13: G236A/G237A (antibody, human IgG1, kappa)
heavy: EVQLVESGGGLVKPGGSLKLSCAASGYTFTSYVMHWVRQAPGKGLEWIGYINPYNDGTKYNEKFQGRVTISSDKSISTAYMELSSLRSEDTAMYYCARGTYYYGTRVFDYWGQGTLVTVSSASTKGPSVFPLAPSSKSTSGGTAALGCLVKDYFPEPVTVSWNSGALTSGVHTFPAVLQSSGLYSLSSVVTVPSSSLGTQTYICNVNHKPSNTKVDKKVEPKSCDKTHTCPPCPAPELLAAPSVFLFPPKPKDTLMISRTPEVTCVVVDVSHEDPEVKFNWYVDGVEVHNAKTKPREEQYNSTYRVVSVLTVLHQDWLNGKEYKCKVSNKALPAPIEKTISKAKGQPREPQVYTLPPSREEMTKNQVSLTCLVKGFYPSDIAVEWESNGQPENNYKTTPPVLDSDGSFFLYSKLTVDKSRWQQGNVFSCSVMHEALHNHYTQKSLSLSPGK
light: B1 light
notes: HuAM4G7 IgG1 Fc variant
B13: the “Fold FcγRIIb” value amounted to 0.0578 fold.

B14: H268D/L328F/I332E (antibody, human IgG1, kappa)
heavy: B1 heavy with H272D, D331A, Y332F
light: B1 light
notes: HuAM4G7 IgG1 Fc variant
As to B14, the “Fold FcγRIIb” value was 12.3 fold.

B15: G236Y (antibody, human IgG1, kappa)
heavy: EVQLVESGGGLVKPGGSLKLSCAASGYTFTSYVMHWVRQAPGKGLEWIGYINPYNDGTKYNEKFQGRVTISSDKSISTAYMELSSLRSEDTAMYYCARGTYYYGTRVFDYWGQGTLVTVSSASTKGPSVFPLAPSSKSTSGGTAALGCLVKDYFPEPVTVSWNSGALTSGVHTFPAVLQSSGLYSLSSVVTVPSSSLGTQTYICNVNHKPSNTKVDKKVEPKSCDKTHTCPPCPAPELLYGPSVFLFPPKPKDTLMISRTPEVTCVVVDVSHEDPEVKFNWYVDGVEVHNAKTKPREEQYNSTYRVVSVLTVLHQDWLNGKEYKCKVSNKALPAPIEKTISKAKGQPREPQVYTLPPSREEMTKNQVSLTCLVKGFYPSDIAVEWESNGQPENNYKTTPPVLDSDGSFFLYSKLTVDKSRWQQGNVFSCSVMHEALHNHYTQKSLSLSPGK
light: B1 light
notes: HuAM4G7 IgG1 Fc variant
Take B15: the binding result is on record as “no binding”.

B16: G236I (antibody, human IgG1, kappa)
heavy: not shown
light: B1 light
notes: HuAM4G7 IgG1 Fc variant
B16: the binding result is given as “no binding”.

B17: H268D/L328W/I332E (antibody, human IgG1, kappa)
heavy: B1 heavy with H272D, D331A, Y332W
light: B1 light
notes: HuAM4G7 IgG1 Fc variant
B17: the “Fold FcγRIIb” value came out at 39.8 fold.

B18: H268E/L328Y/I332E (antibody, human IgG1, kappa)
heavy: B1 heavy with H272E, D331A
light: B1 light
notes: HuAM4G7 IgG1 Fc variant
Consider B18, for which the “Fold FcγRIIb” value is 8.53 fold.

B19: H268D/K326D/L328Y (antibody, human IgG1, kappa)
heavy: B1 heavy with H272D, K330D, D331A, E336I
light: B1 light
notes: HuAM4G7 IgG1 Fc variant
Turning to B19, the “Fold FcγRIIb” value came out at 18.6 fold.

B20: G236D/H268D (antibody, human IgG1, kappa)
heavy: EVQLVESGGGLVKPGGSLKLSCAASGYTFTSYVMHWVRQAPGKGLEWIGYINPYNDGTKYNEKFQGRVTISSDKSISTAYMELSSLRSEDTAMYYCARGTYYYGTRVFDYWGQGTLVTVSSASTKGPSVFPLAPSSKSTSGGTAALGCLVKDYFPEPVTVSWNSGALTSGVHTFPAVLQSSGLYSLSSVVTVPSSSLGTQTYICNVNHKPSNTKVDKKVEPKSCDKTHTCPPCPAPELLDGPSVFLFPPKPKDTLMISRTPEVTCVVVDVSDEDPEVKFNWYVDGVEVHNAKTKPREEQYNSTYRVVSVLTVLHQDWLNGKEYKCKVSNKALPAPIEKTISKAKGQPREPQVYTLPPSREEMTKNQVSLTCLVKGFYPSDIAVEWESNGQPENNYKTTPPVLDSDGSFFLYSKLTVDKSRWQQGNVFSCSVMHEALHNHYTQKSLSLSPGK
light: B1 light
notes: HuAM4G7 IgG1 Fc variant
With B20, the “Fold FcγRIIb” value was 11.6 fold.

B21: A330D (antibody, human IgG1, kappa)
heavy: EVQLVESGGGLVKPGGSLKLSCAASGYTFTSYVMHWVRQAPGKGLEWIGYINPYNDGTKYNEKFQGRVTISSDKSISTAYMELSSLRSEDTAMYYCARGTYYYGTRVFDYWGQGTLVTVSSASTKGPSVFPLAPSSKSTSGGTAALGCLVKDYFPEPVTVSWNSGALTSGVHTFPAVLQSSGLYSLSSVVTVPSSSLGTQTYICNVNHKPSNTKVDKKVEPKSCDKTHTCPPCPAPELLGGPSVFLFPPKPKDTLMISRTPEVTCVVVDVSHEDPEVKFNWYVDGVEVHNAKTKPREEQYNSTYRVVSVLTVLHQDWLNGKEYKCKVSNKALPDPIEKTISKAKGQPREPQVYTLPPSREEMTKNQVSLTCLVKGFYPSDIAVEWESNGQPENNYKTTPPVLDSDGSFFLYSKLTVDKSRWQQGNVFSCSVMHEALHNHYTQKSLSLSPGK
light: B1 light
notes: HuAM4G7 IgG1 Fc variant
B21: the binding result is on record as “no binding”.

B22: H268D/A327D (antibody, human IgG1, kappa)
heavy: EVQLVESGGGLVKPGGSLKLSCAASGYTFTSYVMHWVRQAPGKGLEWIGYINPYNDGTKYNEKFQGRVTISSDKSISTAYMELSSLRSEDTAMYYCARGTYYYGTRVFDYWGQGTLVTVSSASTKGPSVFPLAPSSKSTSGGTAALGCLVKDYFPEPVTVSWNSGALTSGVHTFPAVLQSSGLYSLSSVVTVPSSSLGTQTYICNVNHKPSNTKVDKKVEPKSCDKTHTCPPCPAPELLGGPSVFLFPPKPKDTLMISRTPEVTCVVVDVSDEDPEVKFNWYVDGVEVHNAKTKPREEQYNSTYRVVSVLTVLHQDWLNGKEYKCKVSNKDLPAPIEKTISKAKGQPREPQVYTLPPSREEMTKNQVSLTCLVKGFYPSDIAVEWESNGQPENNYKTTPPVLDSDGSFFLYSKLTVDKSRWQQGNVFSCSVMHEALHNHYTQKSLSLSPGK
light: B1 light
notes: HuAM4G7 IgG1 Fc variant
B22: the “Fold FcγRIIb” value is 7.68 fold.

B23: K326A (antibody, human IgG1, kappa)
heavy: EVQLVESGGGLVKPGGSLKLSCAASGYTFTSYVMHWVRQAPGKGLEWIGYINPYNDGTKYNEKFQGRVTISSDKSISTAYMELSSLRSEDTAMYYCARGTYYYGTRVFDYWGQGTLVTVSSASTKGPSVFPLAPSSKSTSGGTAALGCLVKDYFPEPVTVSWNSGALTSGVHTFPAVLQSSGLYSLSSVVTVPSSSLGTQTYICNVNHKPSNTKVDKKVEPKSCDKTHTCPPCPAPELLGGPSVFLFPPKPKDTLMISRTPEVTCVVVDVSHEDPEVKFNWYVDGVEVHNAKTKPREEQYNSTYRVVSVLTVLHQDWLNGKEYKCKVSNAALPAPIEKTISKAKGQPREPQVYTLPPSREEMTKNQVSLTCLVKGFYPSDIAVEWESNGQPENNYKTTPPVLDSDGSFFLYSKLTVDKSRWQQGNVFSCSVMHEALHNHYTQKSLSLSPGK
light: B1 light
notes: HuAM4G7 IgG1 Fc variant
B23: the binding result is given as “no binding”.

The values are drawn from patent US20170355766A1 (Xencor, published 2017).
